Assays:
[1] = molecular target: Ferric uptake regulator (Fur) from Aliivibrio salmonicida (Aliivibrio salmonicida); test: SEC; Superdex 200 16/60; 300 mM NaCl, 50 mM Tris-HCl, 5 mM beta-mercaptoethanol, pH 7.5; second purification step after IMAC
[2] = molecular target: T1, AsFur (ferric uptake regulator) (Aliivibrio salmonicida, UniProt Q7AUU7 1-147); test: EMSA; Mn2+ (100 uM MnCl2); EMSA: 20 mM Tris acetate pH 8.0, 1 mM MgCl2, 50 mM KCl, 1 mM DTT, 100 uM MnCl2, RT, 5 uM DNA, 0-80 uM AsFur, gel at 6 C; protection assay: 100 mM BisTrisPropane pH 7.5, 100 mM KCl, 5 mM MgSO4, 20 uM AsFur, 10 nM plasmid, RT then HinfI 37 C; settings: protein: recombinant; tags: none stated (pDEST14; histidine-rich protein purified by IMAC); chain copies: 2; blunt
T1 sequence: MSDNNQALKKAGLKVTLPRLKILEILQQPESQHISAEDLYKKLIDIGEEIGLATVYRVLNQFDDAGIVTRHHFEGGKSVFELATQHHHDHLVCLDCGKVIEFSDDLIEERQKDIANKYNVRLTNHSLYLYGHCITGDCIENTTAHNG

Molecule | stoichiometry N [1] | binding result [2]
Ferric uptake regulator (Fur) from Aliivibrio salmonicida (natural protein) | 2 | 
Vibrio anti-consensus (least conserved) (dsDNA) DNA 1: CCGTGCGCACTCCGCAGGG DNA 2: CCCTGCGGAGTGCGCACGG |  | no binding
Vibrio consensus Fur box (dsDNA) DNA 1: AATGATAATAATTATCATT DNA 2: AATGATAATTATTATCATT |  | binds

Reference: publication PMC7536154, “Biochemical characterization of ferric uptake regulator (Fur) from Aliivibrio salmonicida. Mapping the DNA sequence specificity through binding studies and structural modelling”
